Test results taken from US20230002480A1.

Legend:
Assay in all cases: cell-based or functional assay
[1] = target: HIV-1 Env of pseudovirus ZM247v1(Rev-) (HIV-1)
[2] = target: HIV-1 Env of pseudovirus Q23.17 (HIV-1)
[3] = target: HIV-1 Env of pseudovirus 263-8 (HIV-1)
[4] = target: HIV-1 Env of pseudovirus 928-28 (HIV-1)
[5] = target: HIV-1 Env of pseudovirus CNE5 (HIV-1)
[6] = target: HIV-1 Env of pseudovirus ZM197M.PB7 (HIV-1)
[7] = target: HIV-1 Env of pseudovirus 3415.v1.c1 (HIV-1)
[8] = target: HIV-1 Env of pseudovirus 3301.v1.c24 (clade AC) (HIV-1)
[9] = target: HIV-1 Env of pseudovirus 6041.v3.c23 (clade AC) (HIV-1)
[10] = target: HIV-1 Env of pseudovirus 3016.v5.c45 (clade D) (HIV-1)
[11] = target: HIV-1 Env of pseudovirus 6811.v7.c18 (clade CD) (HIV-1)
[12] = target: HIV-1 Env of pseudovirus 6952.v1.c20 (clade CD) (HIV-1)
[13] = target: HIV-1 Env of pseudovirus A07412M1.vrc12 (clade D) (HIV-1)
[14] = target: HIV-1 Env of pseudovirus X1632_S2_B10 (clade G) (HIV-1)
[15] = target: HIV-1 Env of pseudovirus 231965.c01 (clade D) (HIV-1)
[16] = target: HIV-1 Env of pseudovirus 231966.c02 (clade D) (HIV-1)
[17] = target: HIV-1 Env of pseudovirus 0815.v3.c3 (clade ACD) (HIV-1)
[18] = target: HIV-1 Env of pseudovirus 6545.v4.c1 (clade AC) (HIV-1)
[19] = target: HIV-1 Env of pseudovirus 3817.v2.c59 (clade CD) (HIV-1)
[20] = target: HIV-1 Env of pseudovirus 89-F1_2_25 (clade CD) (HIV-1)
[21] = target: HIV-1 Env of pseudovirus 6540.v4.c1 (clade AC) (HIV-1)
[22] = target: HIV-1 Env of pseudovirus 6480.v4.c25 (clade CD) (HIV-1)
[23] = target: HIV-1 Env of pseudovirus 3103.v3.c10 (clade ACD) (HIV-1)
[24] = target: HIV-1 Env of pseudovirus P1981_C5_3 (clade G) (HIV-1)
[25] = target: HIV-1 Env of pseudovirus X2131_C1_B5 (clade G) (HIV-1)

PGT121 (antibody)
IC50 [1]: 0.028 µg/mL | IC80 [1]: 0.082 µg/mL | IC50 [2]: < 0.001 µg/mL | IC80 [2]: 0.005 µg/mL | IC50 [3]: 0.648 µg/mL | IC80 [3]: 3.96 µg/mL | IC50 [4]: 44.2 µg/mL | IC80 [4]: > 50 µg/mL | IC50 [5]: > 50 µg/mL | IC80 [5]: > 50 µg/mL | IC50 [6]: > 50 µg/mL | IC80 [6]: > 50 µg/mL

8ANC195 (antibody)
neutralization IC50 [1]: 3.41 µg/mL | neutralization IC80 [1]: 25.1 µg/mL | neutralization IC50 [2]: 2.55 µg/mL | neutralization IC80 [2]: 2.55 µg/mL | neutralization IC50 [3]: > 50 µg/mL | neutralization IC80 [3]: > 50 µg/mL | neutralization IC50 [4]: > 50 µg/mL | neutralization IC80 [4]: > 50 µg/mL | IC50, titer in TZM.bl cells [5]: 2.12 µg/mL | IC80, titer in TZM.bl cells [5]: 9.67 µg/mL | neutralization IC50 [6]: 23.4 µg/mL | neutralization IC80 [6]: > 50 µg/mL

3BNC117 (antibody)
neutralization IC50 [1]: > 50 µg/mL | neutralization IC80 [1]: > 50 µg/mL | neutralization IC50 [2]: 0.005 µg/mL | neutralization IC80 [2]: 0.02 µg/mL | neutralization IC50 [3]: 0.005 µg/mL | neutralization IC80 [3]: 0.04 µg/mL | neutralization IC50 [4]: 0.15 µg/mL | neutralization IC80 [4]: 0.55 µg/mL | IC50, titer in TZM.bl cells [5]: 0.28 µg/mL | IC80, titer in TZM.bl cells [5]: 1.28 µg/mL | neutralization IC50 [6]: 0.22 µg/mL | neutralization IC80 [6]: 1.03 µg/mL | neutralization IC50 [7]: 0.17 µg/mL | neutralization IC80 [7]: 0.47 µg/mL

10E8 (antibody)
IC50, titer in TZM.bl cells [8]: 4.63 µg/mL | IC80, titer in TZM.bl cells [8]: > 10 µg/mL | IC50, titer in TZM.bl cells [1]: 0.506 µg/mL | IC80, titer in TZM.bl cells [1]: 6.75 µg/mL | IC50, titer in TZM.bl cells [9]: 2.33 µg/mL | IC80, titer in TZM.bl cells [9]: 9.77 µg/mL | IC50, titer in TZM.bl cells [10]: 0.476 µg/mL | IC80, titer in TZM.bl cells [10]: 4.39 µg/mL | IC50, titer in TZM.bl cells [2]: 1.64 µg/mL | IC80, titer in TZM.bl cells [2]: 7.04 µg/mL | IC50, titer in TZM.bl cells [3]: 0.196 µg/mL | IC80, titer in TZM.bl cells [3]: 1.73 µg/mL | IC50, titer in TZM.bl cells [11]: 7.54 µg/mL | IC80, titer in TZM.bl cells [11]: > 10 µg/mL | IC50, titer in TZM.bl cells [12]: 0.343 µg/mL | IC80, titer in TZM.bl cells [12]: 1.91 µg/mL | IC50, titer in TZM.bl cells [13]: 0.576 µg/mL | IC80, titer in TZM.bl cells [13]: 6.05 µg/mL | IC50, titer in TZM.bl cells [14]: 1.98 µg/mL | IC80, titer in TZM.bl cells [14]: 9.68 µg/mL | IC50, titer in TZM.bl cells [4]: 0.384 µg/mL | IC80, titer in TZM.bl cells [4]: 1.96 µg/mL | IC50, titer in TZM.bl cells [15]: > 10 µg/mL | IC80, titer in TZM.bl cells [15]: > 10 µg/mL | IC50, titer in TZM.bl cells [16]: 0.191 µg/mL | IC80, titer in TZM.bl cells [16]: 3.13 µg/mL | IC50, titer in TZM.bl cells [17]: 0.332 µg/mL | IC80, titer in TZM.bl cells [17]: 2.87 µg/mL | IC50, titer in TZM.bl cells [6]: 0.148 µg/mL | IC80, titer in TZM.bl cells [6]: 0.802 µg/mL | IC50, titer in TZM.bl cells [18]: 1.78 µg/mL | IC80, titer in TZM.bl cells [18]: 8.23 µg/mL | IC50, titer in TZM.bl cells [19]: 1.18 µg/mL | IC80, titer in TZM.bl cells [19]: 5.98 µg/mL | IC50, titer in TZM.bl cells [20]: 1.11 µg/mL | IC80, titer in TZM.bl cells [20]: 10 µg/mL | IC50, titer in TZM.bl cells [21]: 1.9 µg/mL | IC80, titer in TZM.bl cells [21]: 10 µg/mL | IC50, titer in TZM.bl cells [22]: 8.08 µg/mL | IC80, titer in TZM.bl cells [22]: > 10 µg/mL | IC50, titer in TZM.bl cells [23]: > 10 µg/mL | IC80, titer in TZM.bl cells [23]: > 10 µg/mL | IC50, titer in TZM.bl cells [24]: 0.057 µg/mL | IC80, titer in TZM.bl cells [24]: 0.285 µg/mL | IC50, titer in TZM.bl cells [25]: 0.189 µg/mL | IC80, titer in TZM.bl cells [25]: 0.974 µg/mL

VRC01 (antibody)
IC50, titer in TZM.bl cells [1]: 0.35 µg/mL | IC80, titer in TZM.bl cells [1]: 1.29 µg/mL | IC50, titer in TZM.bl cells [2]: 0.09 µg/mL | IC80, titer in TZM.bl cells [2]: 0.261 µg/mL | IC50, titer in TZM.bl cells [3]: 0.2 µg/mL | IC80, titer in TZM.bl cells [3]: 0.55 µg/mL | IC50, titer in TZM.bl cells [4]: 0.41 µg/mL | IC80, titer in TZM.bl cells [4]: 1.7 µg/mL | IC50, titer in TZM.bl cells [5]: 0.37 µg/mL | IC80, titer in TZM.bl cells [5]: 1.1 µg/mL | IC50, titer in TZM.bl cells [6]: 0.36 µg/mL | IC80, titer in TZM.bl cells [6]: 1.6 µg/mL | IC50, titer in TZM.bl cells [7]: 0.06 µg/mL | IC80, titer in TZM.bl cells [7]: 0.15 µg/mL

N49P6 (antibody)
IC50 [1]: 0.063 µg/mL | IC80 [1]: 0.17 µg/mL | MPI [1]: 100 | IC50 [2]: 0.052 µg/mL | IC80 [2]: 0.185 µg/mL | MPI [2]: 100 | IC50 [3]: 0.116 µg/mL | IC80 [3]: 0.438 µg/mL | MPI [3]: 100 | IC50 [4]: 1.24 µg/mL | IC80 [4]: 5.6 µg/mL | MPI [4]: 99 | IC50 [6]: 3 µg/mL | IC80 [6]: 12.4 µg/mL | MPI [6]: 98 | IC50 [7]: 0.188 µg/mL | IC80 [7]: 0.648 µg/mL | MPI [7]: 100
